Data on one protein can be found in PMC3465764.

The Km is the substrate concentration at which the rate is half of its maximum.

Substrate in this data set: NC(=O)c1cnccn1
Briefly: steady-state enzyme kinetics. The class given is biochemical, Acinetobacter baumannii.

B1: AbPncA (Acinetobacter baumannii ATCC 19606 = CIP 70.34 = JCM 6841) (protein)
chain: MKMNKQPQNSALVVVDVQNGFTPGGNLAVADADTIIPTINQLAGCFENVVLTQDWHPDNHISFAANHPGKQPFETIELDYGSQVLWPKHCIQGTHDAEFHPDLNIPTAQLIIRKGFHAHIDSYSAFMEADHTTMTGLTGYLKERGIDTVYVVGIATDFCVAWTALDAVKQGFKTLVIEDACKGIDLNGSLEQAWQTMQQQGVVRIQSTDLLNEC
Turning to B1, the Km turned out to be 106.9 µM.
